Measurements taken from US20250361296A1 (BIOCYTOGEN PHARMACEUTICALS BEIJING, published 2025).

T1: human SIGLEC15 on CHO-S-hSIGLEC15 cells (human, UniProt Q6ZMC9 20-328)
T1 sequence: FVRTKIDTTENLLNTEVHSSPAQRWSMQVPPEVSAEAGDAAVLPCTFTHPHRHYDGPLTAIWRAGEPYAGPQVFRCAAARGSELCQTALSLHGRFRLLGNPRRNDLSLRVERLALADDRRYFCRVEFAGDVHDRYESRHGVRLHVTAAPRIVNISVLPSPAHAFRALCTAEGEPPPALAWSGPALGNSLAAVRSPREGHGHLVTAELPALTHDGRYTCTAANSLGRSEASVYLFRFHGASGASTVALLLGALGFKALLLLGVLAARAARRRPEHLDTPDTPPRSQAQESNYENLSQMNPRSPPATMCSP

T2: dog SIGLEC15 on CHO-S-dSIGLEC15 cells (dog)
T2 chain: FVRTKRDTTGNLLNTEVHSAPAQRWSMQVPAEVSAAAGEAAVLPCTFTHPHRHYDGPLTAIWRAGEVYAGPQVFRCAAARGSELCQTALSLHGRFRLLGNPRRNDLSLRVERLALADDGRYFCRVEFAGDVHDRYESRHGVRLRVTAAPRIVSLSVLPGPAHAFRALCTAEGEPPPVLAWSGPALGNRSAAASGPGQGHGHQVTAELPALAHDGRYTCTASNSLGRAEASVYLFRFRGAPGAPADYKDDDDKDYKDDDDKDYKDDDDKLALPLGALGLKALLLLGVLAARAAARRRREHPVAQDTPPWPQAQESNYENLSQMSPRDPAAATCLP

T3: mouse SIGLEC15 on CHO-S-mSIGLEC15 cells (mouse)
T3 chain: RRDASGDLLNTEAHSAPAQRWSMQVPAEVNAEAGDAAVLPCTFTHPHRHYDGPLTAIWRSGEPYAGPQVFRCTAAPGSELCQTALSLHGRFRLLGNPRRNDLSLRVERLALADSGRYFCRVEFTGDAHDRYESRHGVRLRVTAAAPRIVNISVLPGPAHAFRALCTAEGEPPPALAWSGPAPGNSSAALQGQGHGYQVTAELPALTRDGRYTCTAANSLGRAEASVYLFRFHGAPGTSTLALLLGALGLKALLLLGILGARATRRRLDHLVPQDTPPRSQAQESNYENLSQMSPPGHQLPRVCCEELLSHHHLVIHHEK

T4: hSIGLEC15 protein captured in the epitope analysis of Example 4 (human, UniProt Q6ZMC9 20-263, limits assumed)
T4 sequence: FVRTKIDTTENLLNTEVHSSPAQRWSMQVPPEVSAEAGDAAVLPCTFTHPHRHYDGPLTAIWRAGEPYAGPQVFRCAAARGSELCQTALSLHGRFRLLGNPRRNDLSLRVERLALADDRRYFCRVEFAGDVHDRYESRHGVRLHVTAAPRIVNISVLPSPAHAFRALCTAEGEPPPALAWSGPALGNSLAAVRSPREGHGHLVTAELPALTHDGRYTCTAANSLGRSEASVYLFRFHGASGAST

B1: anti-SIGLEC15 antibody 10A7 (antibody, human IgG1, V domains shown)
VH: EVQLVQSGGGLVQPGGSLRLSCAASGFTFSNYEMNWVRQAPGKGLEWISYISNSGSTIYYADSVKGRFTISRDDAKNSLYLQMNSLRAEDTAVYYCAREDYDSSGYYWFDPWGQGTPVTVSS
VL: DIQLTQSPSSVSASVGDRVTITCRASQGISSWLAWYQQKPGKAPKLLIYAASSLQSGVPSRFSGSGSGTDFTLTINSLQPEDFATYYCQQTNSFPLTFGGGTKVEIK
B2: anti-SIGLEC15 antibody 10C9 (antibody, human IgG1, V domains shown)
VH: QVQLVQSGAEVKKPGATVKVSCKASGYTFTNYGFSWVRQAPGQGLEWMGWINTYNDNTNYAQKFQGRVTMTTDTSTSTAYMELRSLRSDDTAVYYCARDGLWFGELPHYFDYWGQGTLVTVSS
VL: DIQLTQSPLSSPVTLGQPASISCRSSQSLVNSDGETFLSWLQQRPGQPPRLLIYKISNRFSGVPDRFSGSGAGTDFTLKISRVEAEDVGVYYCMQATQFPHTFGQGTKLEIK
B3: anti-SIGLEC15 antibody 23F4 (antibody, human IgG1, V domains shown)
VH: QVQLQQWGAGLLKPSETLSLTCAVYGGSFSGYFWSWIRQPPGKGLEWIGEINHSGSTNYNPSLKSRVTLSVDTSKNQFSLKLSSVTAADTAVYYCAREGDSSSWGNWFDPWGQGTLVTVSS
VL: EIVLTQSPGTLSLSPGERATLSCRASQSVSSSYLAWYQQKPGQAPRFLIYGASSRATGIPDRFSGSGSGTDFTLTISRLEPEDFAVYYCQQFGNSPLTFGGGTKVEIK

Biological target: T1, human SIGLEC15 on CHO-S-hSIGLEC15 cells
Assay: flow cytometry, CHO-S cells expressing the target
Experimental: (§1) CHO-S-hSIGLEC15 cells, CHO-S-mSIGLEC15 cells, CHO-S-fasSIGLEC15 cells or CHO-S-dSIGLEC15 cells were transferred to a 96-well plate at a density of 5×10⁴ cells/well respectively. Serially diluted sample anti-SIGLEC15 antibodies were added to the 96-well plate, and incubated at 4° C. for 30 min. Then, the cells were incubated with the secondary antibody anti-hIgG-Fc-Alex Flour 647 (RL1-H) (Jackson ImmunoResearch Laboratories, Inc., 109-606-170) at 4° C. in the dark for 15 minutes before flow cytometry analysis.

| Percentage of Positive Cells | Binder |
| --- | --- |
| 17.9% | B1 |
| 16.3% | B2 |
| 25.6% | B3 |

Biological target: T2, dog SIGLEC15 on CHO-S-dSIGLEC15 cells
Assay: flow cytometry, CHO-S cells expressing the target
Experimental: as §1

| Percentage of Positive Cells | Binder |
| --- | --- |
| 22.8% | B1 |
| 37.3% | B2 |
| 24.6% | B3 |

Biological target: T3, mouse SIGLEC15 on CHO-S-mSIGLEC15 cells
Assay: flow cytometry, CHO-S cells expressing the target
Experimental: as §1

| Percentage of Positive Cells | Binder |
| --- | --- |
| 38.5% | B1 |
| 29.3% | B2 |
| 40.5% | B3 |

Biological target: T4, hSIGLEC15 protein captured in the …
Assay: BLI pairwise binning on captured hSIGLEC15, 200 nM each antibody; competitor 10A7
Experimental: Relative positions of target protein epitope between a pair of purified anti-SIGLEC15 antibodies were analyzed by Biolayer Interferometry (BLI) using ForteBio Octet system at 30° C. A total of 4 purified antibodies were used: 5G12, 10A7, 10C9 and 23F4.
1×HBS-EP+ buffer (10 mM 4-(2-hydroxyethyl)-1-piperazineethanesulfonic acid (HEPES), 150 mM NaCl, 3 mM ethylenediaminetetraacetic acid (EDTA) and 0.05% P20, pH7.4) diluted from HBS-EP+ buffer (10×) was used as the running buffer throughout the experiment. About 100 RU of hSIGLEC15 protein was captured at a flow rate of 10 μL/min, and 200 nM of antibody was injected at a flow rate of 30 μL/min to bind the ligand. Another antibody was injected under the same conditions to determine whether the binding of different antibodies interfered with each other. The binding time was 300 s for each antibody.
The binding value of each antibody was obtained using Data Analysis HT 12.0. To quantify the interference of one antibody binding to another, a binding ratio was calculated to compare each pair of antibodies. The binding ratio is defined as the binding value of the second antibody (analyte 2), divided by the binding value of the first antibody (analyte 1). […] In general, antibody pairs that interfere with each other have the same or overlapping epitopes.

| binding ratio | Binder |
| --- | --- |
| 0.14 | B1 |
| 0.11 | B2 |
| 0.18 | B3 |
